Experimental data: paper PMC6238398, “The crystal structure of Staufen1 in complex with a physiological RNA sheds light on substrate selectivity” (Life Science Alliance, 2018)
Residue numbers refer to the chain shown, from its start.

Legend:
[1] = biological target: the molecule itself; test: SEC + SEC-MALS; apo proteins on Superdex 200 Increase 10/300 GL with MALLS detector; 20 mM Tris-HCl pH 7.5, 150 mM KCl, RT; 200 ug FL, 350 ug hStau1 182-577 injected
hStau1 FL [2] = biological target: T1, hStau1 FL (Homo sapiens, UniProt O95793 1-577); test: fluorescence anisotropy; FA: 10 nM 5'-FAM RNA, 20 mM Hepes pH 7.5, 150 mM KCl, RT (19-21 C); EMSA: 1 uM RNA, same buffer, 45 min on ice; conditions: protein: recombinant, tags: tag removed or His/GST not specified, chain copies: 2
hStau1 FL [3] = biological target: T1, hStau1 FL; test: as above; conditions: protein: recombinant; tags: tag removed or His/GST not specified; chain copies: 2; label: 5'-6-FAM; blunt
[4] = biological target: hStau1 base-contact mutant (Homo sapiens, UniProt O95793 182-360, S187A;P211A;Q293A); test: as above; conditions: protein: recombinant, blunt
Sequence of hStau1 base-contact mutant (O95793 182-360 S187A/P211A/Q293A): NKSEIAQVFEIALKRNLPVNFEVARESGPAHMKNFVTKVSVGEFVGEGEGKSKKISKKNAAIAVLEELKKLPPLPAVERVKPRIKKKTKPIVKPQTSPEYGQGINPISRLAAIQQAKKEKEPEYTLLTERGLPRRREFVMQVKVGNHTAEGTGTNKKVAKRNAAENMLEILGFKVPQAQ

[5] = biological target: hStau1 deltaN (dsRBD2 removed) (Homo sapiens, UniProt O95793 182-577); test: as above; conditions: protein: recombinant; label: 5'-6-FAM on sense strand; blunt, two G-U wobbles
GST-hStau1 dsRBD3-4 = GST-hStau1 dsRBD3-4 (Homo sapiens, UniProt O95793 182-360); test: as above; conditions: protein: recombinant; tags: N-terminal GST; label: 5'-6-FAM on sense strand; blunt, two G-U wobbles
hStau1 dsRBD3-4 = hStau1 dsRBD3-4 (Homo sapiens, UniProt O95793 182-360); test: as above; conditions: protein: recombinant; tags: untagged; chain copies: 2; label: 5'-6-FAM on sense strand; blunt, two G-U wobbles
[6] = biological target: hStau1 deltaC (SSM and dsRBD5 removed) (Homo sapiens, UniProt O95793 1-360); test: as above; conditions: protein: recombinant; label: 5'-6-FAM on sense strand; blunt, two G-U wobbles
GST-hStau1 dsRBD3 = GST-hStau1 dsRBD3 (Homo sapiens, UniProt O95793 182-255); test: as above; conditions: protein: recombinant; tags: N-terminal GST; label: 5'-6-FAM on sense strand; blunt, two G-U wobbles
GST-hStau1 dsRBD4 = GST-hStau1 dsRBD4 (Homo sapiens, UniProt O95793 284-358); test: as above; conditions: protein: recombinant; tags: N-terminal GST; label: 5'-6-FAM on sense strand; blunt, two G-U wobbles
[7] = biological target: hStau1 dsRBD3-4 linker charge mutant (Homo sapiens, UniProt O95793 182-360, K266A;K267E;K268A;K270A); test: as above; conditions: protein: recombinant; label: 5'-6-FAM on sense strand; blunt, two G-U wobbles
[8] = biological target: hStau1 dsRBD3-4 short linker (Homo sapiens, UniProt O95793 182-253+=GSSGSGSS+284-360, internal_change); test: as above; conditions: protein: recombinant; label: 5'-6-FAM on sense strand; blunt, two G-U wobbles
[9] = biological target: hStau1 dsRBD3-4 interface mutant (Homo sapiens, UniProt O95793 182-360, N197A;R342A); test: fluorescence anisotropy; no effect on affinity vs wt; FA: 10 nM 5'-FAM RNA, 20 mM Hepes pH 7.5, 150 mM KCl, RT (19-21 C); EMSA: 1 uM RNA, same buffer, 45 min on ice; conditions: protein: recombinant; label: 5'-6-FAM on sense strand; blunt, two G-U wobbles
Sequence of hStau1 dsRBD3-4 interface mutant (O95793 182-360 N197A/R342A): as the sequence (O95793 182-360 S187A/P211A/Q293A) above, with A6S, N16A, A30P, A112Q, R161A counted along it

[10] = biological target: hStau1 dsRBD4 backbone mutant (Homo sapiens, UniProt O95793 182-360, R315A;R317A;K337E;K338A;K341A); test: fluorescence anisotropy; FA: 10 nM 5'-FAM RNA, 20 mM Hepes pH 7.5, 150 mM KCl, RT (19-21 C); EMSA: 1 uM RNA, same buffer, 45 min on ice; conditions: protein: recombinant; label: 5'-6-FAM on sense strand; blunt, two G-U wobbles
[11] = biological target: hStau1 dsRBD3 backbone mutant (Homo sapiens, UniProt O95793 182-360, H212A;K214A;K234E;K235A;K238A); test: as above; conditions: protein: recombinant; label: 5'-6-FAM on sense strand; blunt, two G-U wobbles
[12] = biological target: T2, dStau dsRBD3 backbone mutant (Drosophila melanogaster, UniProt P25159 570-786, H606A;K608A;K628E;K629A); test: as above; conditions: protein: recombinant; label: 5'-6-FAM; hairpin
T2 sequence: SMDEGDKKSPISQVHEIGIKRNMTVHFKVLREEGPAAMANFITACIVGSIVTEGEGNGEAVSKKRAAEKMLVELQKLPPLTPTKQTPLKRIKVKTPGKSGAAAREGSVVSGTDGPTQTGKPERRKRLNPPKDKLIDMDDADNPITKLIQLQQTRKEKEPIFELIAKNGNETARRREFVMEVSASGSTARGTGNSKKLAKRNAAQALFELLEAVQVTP

dStau S581A Q718A = biological target: T3, dStau S581A Q718A (Drosophila melanogaster, UniProt P25159 570-786, S581A;Q718A); test: as above; conditions: protein: recombinant; label: 5'-6-FAM; hairpin
T3 sequence: T2 sequence with S12A, A37H, A39K, E59K, A60K, Q149A

[13] = biological target: T4, dStau dsRBD4 backbone mutant (Drosophila melanogaster, UniProt P25159 570-786, R742A;R744A;K764E;K765A;K768A); test: as above; conditions: protein: recombinant; label: 5'-6-FAM; hairpin
T4 sequence: T2 sequence with A37H, A39K, E59K, A60K, R173A, R175A, K195E, K196A, K199A

B1: hStau1 aa 182-577 (N-terminal deletion removing dsRBD2) (domain or fragment, human, UniProt O95793 182-577, looked up)
chain: NKSEISQVFEIALKRNLPVNFEVARESGPPHMKNFVTKVSVGEFVGEGEGKSKKISKKNAAIAVLEELKKLPPLPAVERVKPRIKKKTKPIVKPQTSPEYGQGINPISRLAQIQQAKKEKEPEYTLLTERGLPRRREFVMQVKVGNHTAEGTGTNKKVAKRNAAENMLEILGFKVPQAQPTKPALKSEEKTPIKKPGDGRKVTFFEPGSGDENGTSNKEDEFRMPYLSHQQLPAGILPMVPEVAQAVGVSQGHHTKDFTRAAPNPAKATVTAMIARELLYGGTSPTAETILKNNISSGHVPHGPLTRPSEQLDYLSRVQGFQVEYKDFPKNNKNEFVSLINCSSQPPLISHGIGKDVESCHDMAALNILKLLSELDQQSTEMPRTGNGPMSVCGRC
notes: human Staufen1 (hStau1), GenBank AAD17531.1, aa 182-577 (dsRBD3, dsRBD4, TBD, SSM, dsRBD5); GST was kept or cleaved; also called hStau1^182-577
[1]
  stoichiometry N: 2

B2: human Staufen1 full-length (natural protein, UniProt O95793 1-577, looked up)
chain: MSQVQVQVQNPSAALSGSQILNKNQSLLSQPLMSIPSTTSSLPSENAGRPIQNSALPSASITSTSAAAESITPTVELNALCMKLGKKPMYKPVDPYSRMQSTYNYNMRGGAYPPRYFYPFPVPPLLYQVELSVGGQQFNGKGKTRQAAKHDAAAKALRILQNEPLPERLEVNGRESEEENLNKSEISQVFEIALKRNLPVNFEVARESGPPHMKNFVTKVSVGEFVGEGEGKSKKISKKNAAIAVLEELKKLPPLPAVERVKPRIKKKTKPIVKPQTSPEYGQGINPISRLAQIQQAKKEKEPEYTLLTERGLPRRREFVMQVKVGNHTAEGTGTNKKVAKRNAAENMLEILGFKVPQAQPTKPALKSEEKTPIKKPGDGRKVTFFEPGSGDENGTSNKEDEFRMPYLSHQQLPAGILPMVPEVAQAVGVSQGHHTKDFTRAAPNPAKATVTAMIARELLYGGTSPTAETILKNNISSGHVPHGPLTRPSEQLDYLSRVQGFQVEYKDFPKNNKNEFVSLINCSSQPPLISHGIGKDVESCHDMAALNILKLLSELDQQSTEMPRTGNGPMSVCGRC
notes: human Staufen1 (hStau1), GenBank AAD17531.1, codon optimized; full-length protein; the truncation 182-577 implies a length of 577 aa; Constructs carried either an N-terminal GST tag or a His tag; The His tag was removed by TEV; the GST tag was either kept (elution with glutathione) or cleaved by TEV; also called hStau1 FL; hStau1
[1]
  stoichiometry N: 2

## UGAGUGCCAGAAGCUGCCUC (ssRNA) [ssARF1 (sense strand)]
hStau1 FL [2]; label: 5'-6-FAM, single strand
  Kd: 96 ± 27 nM

B3: dsAU (dsRNA)
RNA 1: UAUUAUAUAAAUUAUAAAAU
RNA 2: AUUUUAUAAUUUAUAUAAUA
hStau1 FL [3]
  binding signal: ~4 fold reduction vs ARF1 SBS
[4]; label: 5'-6-FAM
  binding signal: ~1.5 fold reduction vs wt on dsAU

B4: ARF1 SBS (dsRNA)
RNA 1: UGAGUGCCAGAAGCUGCCUC
RNA 2: GAGGCAGUUUCUGGUACUCA
hStau1 FL [2]; label: 5'-6-FAM on sense strand, blunt, two G-U wobbles
  Kd: 6 ± 1 nM
[5]
  Kd: 9 ± 3 nM
GST-hStau1 dsRBD3-4
  Kd: 9 ± 2 nM
hStau1 dsRBD3-4
  Kd: 14 ± 4 nM
[6]
  Kd: 10 ± 2 nM
GST-hStau1 dsRBD3
  binding signal: ~10 fold reduction vs tandem dsRBD3-4
GST-hStau1 dsRBD4
  binding signal: ~1000 fold reduction vs tandem dsRBD3-4
[7]
  binding signal: ~3 fold reduction vs wt
[8]
  binding signal: ~8 fold reduction vs wt
[9]
  binding result: binds
[10]
  binding signal: ~4.5 fold reduction vs wt
[11]
  binding signal: ~8 fold reduction vs wt
[4]; label: 5'-6-FAM on sense strand, two G-U wobbles
  binding signal: ~3 fold reduction vs wt

B5: bcd III (structured_RNA)
RNA: CGCUAUUCGCCUUAGAUGUAUCUGGGUGGCUGCUCCACUAAAGCCCGGGAAUAUGCAACCAGUUACAUUUGAGGCCAUUUGGGCUUAAGCG
[12]
  binding signal: ~10 fold reduction vs wt (almost)
dStau S581A Q718A
  binding signal: ~3.5 fold reduction vs wt
[13]
  binding signal: < 3 fold reduction vs wt
